This note sets out measurements from paper PMC3418443.

The test addresses IL-1 receptors on the surface of HIG-82 synoviocytes (rabbit (endogenous in HIG-82)). The test is described as follows: flow cytometry on cells.

Sequence of IL-1β (P01584 117-269): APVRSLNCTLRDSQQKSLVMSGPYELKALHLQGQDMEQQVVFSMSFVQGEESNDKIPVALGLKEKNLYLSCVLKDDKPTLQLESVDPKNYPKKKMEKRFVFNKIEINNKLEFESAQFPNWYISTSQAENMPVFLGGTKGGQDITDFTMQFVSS

With “IL-1β (from UniProt P01584 117-269) (ligand)”, the % cells with bound IL-1Ra-particles after pre-block with IL-1β came to 2.8%.
